Measured values: US20030036169A1

Target: APP695 (human) (UniProt P05067)
Assay: cell-based or functional assay

Row | steady-state levels of transfected APP695 in HEK293 cells (quantitative immunoblot) [fold] | Binder
1 | < 3 | Mint 1 (protein) MNHLEGSAEVEVADEAPGGEVNESVEADLEHPEVEEEQQPSPPPPAGHAPEDHRAHPAPPPPPPPQEEEEERGECLARSASTESGFHNHTDTAEGDVLAAARDGYEAERAQDADDESAYAVQYRPEAEEYTEQAEAEHAEAAQRRALPNHLHFHSLEHEEAMNAAYSGYVYTHRLFHRAEDEPYAEPYADYGGLQEHVYEEIGDAPELEARDGLRLYERERDEAAAYRQEALGARLHHYDERSDGESDSPEKEAEFAPYPRMDSYEQEEDIDQIVAEVKQSMSSQSLDKAAEDMPEAEQDLERAPTPGGGHPDSPGLPAPAGQQQRVVGTPGGSEVGQRYSKEKRDAISLAIKDIKEAIEEVKTRTIRSPYTPDEPKEPIWVMRQDISPTRDCDDQRPVDGDSPSPGSSSPLGAESSITPLHPGDPTEASTNKESRKSLASFPTYVEVPGPCDPEDLIDGIIFAANYLGSTQLLSDKTPSKNVRMMQAQEAVSRIKTAQKLAKSRKKAPEGESQPMTEVDLFISTQRIKVLNADTQEPMMDHPLRTISYIADIGNIVVLMARRRMPRSNSQENVEASHPSQDAKRQYKMICHVFESEDAQLIAQSIGQAFSVAYQEFLRANGINPEDLSQKEYSDLLNTQDMYNDDLIHFSKSENCKDVFIEKQKGEILGVVIVESGWGSILPTVIIANMMHGGPAEKSGKLNIGDQIMSINGTSLVGLPLSTCQSIIKGLKNQSRVKLNIVRCPPVTTVLIRRPDLRYQLGFSVQNGIICSLMRGGIAERGGVRVGHRIIEINGQSVVATPHEKIVHILSNAVGEIHMKTMPAAMYRLLTAQEQPVYI
2 | < 3 | Mint 2 (protein) MAHRKRQSTASSMLDHRARPGPIPHDQEPENEDTELPLESYVPTGLELGTLRPDSPTPEEQECHNHSPDGDSSSDYVNNTSEEEDYDEGLPEEEEGVTYYIRYCPEDDSYLEGMDCNGEEYLAHGAHPVDTDECQEAVEDWTDSVGPHTHSHGAENSQEYPDSHLPIPEDDPTVLEVHDQEEDGHYCPSKESYQDYYPPETNGNTGGASPYRMRRGDGDLEEQEEDIDQIVAEIKMSLSMTSITSASEASPEHMPELDPGDSTEACSPSDTGRGPSRQEARPKSLNLPPEVKHSGDPQRGLKTKTRTPEERPKWPQEQVCNGLEQPRKQQRSDLNGPTDNNNIPETKKVASFPSFVAVPGPCEPEDLIDGIIFAANYLGSTQLLSERNPSKNIRMMQAQEAVSRVKRMQKAAKIKKKANSEGDAQTLTEVDLFISTQRIKVLNADTQETMMDHALRTISYIADIGNIVVLMARRRMPRSASQDCIETTPGAQEGKKQYKMICHVFESEDAQLIAQSIGQAFSVAYQEFLRANGINPEDLSQKEYSDIINTQEMYNDDLIHFSNSENCKELQLEKHKGEILGVVVVESGWGSILPTVILANMMNGGPAARSGKLSIGDQIMSINGTSLVGLPLATCQGIIKGLKNQTQVKLNIVSCPPVTTVLIKRPDLKYQLGFSVQNGIICSLMRGGIAERGGVRVGHRIIEINGQSVVATAHEKIVQALSNSVGEIHMKTMPAAMFRLLTGQETPLYI
3 | < 3 | Mint 3 (protein, rat, UniProt O70248 1-569, looked up) MEFLPEPQHPPGPPTMDLEEPKGPEVPSEDHPSNTQWALGPRGPDTLSEMELDTSSVRALVQQLEALPSDLGGQFPDGAPCPLHIATGQGLATQENLDAGGLLSAEAGGDNLLGLLRCEASLPAQSVPPDPAQAAPRLLQPPEDPGGDPGWMEGTEPADNRSSSSSPELWLETAPLVTHRDPPVGTQSQETLASCPAVSEVPGPCGQEELMDGVLFGAKYLGSTQLLSERNPPPSTRMGQAQEAMDRVKAPEGETQPMTEVDIFISTKRVKVLAADSQDALMDHALQTISYIADIGPVLVLMARRRLAKRTTSQDRQRQLYKMLCHVFHSEDAQLIAQAIGQAFSIAYSQFLQENRIDPSQVGMQPSASASHPHNGDLDHFCNSQNCREVCIQKRPGEGLGVALVESGWGSLLPTAVIANLLHGGPAERCGALSIGDRVTAINGTSLVGLSLAACQAAVREVRRHSSVTLSIIHCPPVTTAVIHRPHVREQLGFCVENGIICSLLRGSAAERGGVRVGHRIIEVNGQSVVAMPHARIIQLLTETREIHIKTMPAATYRLLTGQEQPVYL
